B1: Hairpin Ribozyme (parent)
chain: GUCCUCUUUCACGUGCGCGUGAAAGAGAGAAGUGAACCAGAGAAACACACGUUGUGGUAUAUUACCUGGUA

Variants of: B1
Assay: self-cleavage, relative activity (ratio to wild type); higher = more cleavage; co-transcriptional

Variant	self-cleavage
G17C A41U	1.27
C16U A28U	0.723
C16U A28G	1.32
G15U A36G	1.25
G15U A43C	0.195
G15C G54C	0.404
G15C G54A	0.532
G15C C48U	0.112
C16U A43U	0.134
C16U A43G	0.0631
C16A A23U	0.727
C16A G42U	0.276
G17A A30C	0.231
G17A G19U	1.02
C16A A31U	0.0142
C16A A35C	1.26
C16A A35U	0.789
G17A G54C	0.429
G17A G54U	0.667
C16A C66G	0.249
C16G U52C	0.718
C16G U52G	0.443
C16U G27C	0.202
G15U C65A	1.15

Variant	self-cleavage
C16A G25U	0.589
G15U C46G	0.167
G15U A71C	1.53
C16U G29C	0.1
C16G G25C	0.302
C16G G25U	0.547
C16G G32U	0.18
C16G G29C	0.141
G17C A31U	0.0868
G17C A31C	0.172
G15U A39U	0.544
C16G C37A	0.244
C16U G17A	1.19
C16U A61C	0.254
G17C A24C	0.614
G15U U60C	1.01
C16U A59C	0.17
C16U A59G	0.109
C16A G69A	0.308
C16G U63C	0.204
G15U A41G	0.943
C16A A41U	1.3
C16A A41G	0.818
G17A G32C	0.0599

Variant	self-cleavage
G17A G32U	0.123
G15U A45U	0.221
C16U A31U	0.211
C16U A31G	0.742
G15C A44C	0.0713
G15C A44U	0.18
G17A C48U	0.176
C16U A30C	0.0996
G15U G17U	1.06
G15U A22U	0.996
G17A C37U	0.463
C16G G27A	0.37
C16G G27U	0.106
C16G G27C	0.222
C16G A49U	0.221
G15C G40A	0.315
C16G G51A	0.798
C16G A71U	0.552
G17A A39U	0.44
G17C A22U	0.644
G15C A26U	0.777
C16U G68A	0.283
C16G A24C	0.688
C16G A24U	0.69

Variant	self-cleavage
G15C U70G	0.946
G15C U70C	0.965
G17A A23C	0.987
G17A A23U	0.892
G17A A31U	0.105
G17A A31G	0.694
G15C A49U	0.102
G15C A49G	0.523
G15C A49C	0.101
G17A U52A	0.912
G17A A26U	0.768
G15C A36U	0.505
C16G A41G	0.593
C16G A41U	1.35
C16G U70G	0.508
G15C A23G	1.05
C16G U20C	0.868
G17A A22G	1.12
G17A A22C	0.866
G17A A22U	0.892
G15C G68U	0.235
G15U G19A	0.968
C16U G19C	0.867
C16U U20G	1.01

Variant	self-cleavage
G15C A71G	0.98
C16G U62A	0.168
C16G U62G	0.181
C16U C38U	0.443
C16U C38G	0.206
G17C C18U	0.902
C16A G34C	1.44
G17A G57U	0.301
G17A G57A	0.228
C16G G56A	0.073
C16U G56A	0.208
C16A A30U	0.154
C16A A30C	0.134
G15C A39G	0.304
C16U A35U	0.916
C16G U58C	1.06
C16G C48A	0.0451
C16G C48G	0.19
G15U U55G	0.302
G15U U55C	0.306
G15C C16G	1.06
C16A C65A	0.845
C16A C65G	0.255
C16G C65U	0.167

Variant	self-cleavage
C16G C65A	0.976
G17C A59U	0.122
G17A U58C	0.869
G17A U58G	0.78
G17A C66G	0.268
G15U U20A	0.941
G15U U20G	0.853
G17C A26G	0.709
G17C A26U	0.414
G15U C18A	1.07
G15U C18U	1.03
C16G U60C	1.06
C16G U60A	0.62
C16G G19A	0.646
C16G C46U	0.0715
C16A G68U	0.181
C16A G68C	0.176
G17C A35C	1.04
G17C A35G	0.801
C16G U55C	0.239
C16G U53C	0.949
C16A A64U	0.14
G17A G27C	0.074
G17A G21U	0.901

Variant	self-cleavage
C16A A22G	0.617
C16U G40A	0.276
C16U G40C	0.11
C16U A49U	0.281
G17A G69U	0.203
G17C C37U	0.542
G17C A43C	0.118
G17C A43G	0.131
C16G A47C	0.293
G15C U60C	1.25
C16A C18A	1.14
C16U A45G	0.135
C16U A45U	0.128
C16U U62G	0.107
C16U U62C	0.384
G17A A35G	1.2
G17A A35C	0.945
G15U U67A	0.206
G15C U63C	0.13
C16G A39G	0.288
C16G A39U	0.355
G15U G29C	0.125
G15U U52G	0.94
G15U U52A	0.863

Variant	self-cleavage
C16G G34A	0.883
C16G G34U	1.34
G15C C46G	0.0585
C16G A23C	0.763
G17C A45U	0.12
C16A U58A	0.597
C16A U33C	0.2
C16G G17A	0.894
C16G G17C	0.717
G15C A43C	0.225
G17C A28U	0.28
G17C A28G	0.957
G17C A28C	0.347
G15C G34U	0.975
G17A G68U	0.243
G15C G17C	0.668
G15C G17A	1.03
G15U A26G	0.895
C16U G69C	0.396
C16U U70G	0.722
C16U G57A	0.272
C16A A61U	0.226
C16A U67C	0.24
C16A U67A	0.246

Variant	self-cleavage
G17A A64C	0.143
G15U G68C	0.137
G15U A28G	1.16
G15U A28C	0.619
C16U A39C	0.641
C16U A39U	0.312
G17C A49C	0.146
C16G C66U	0.422
C16A A47G	0.197
G15U C66A	0.367
G15C G32U	0.113
G15C G32A	0.263
G15C G32C	0.0609
C16G A30G	0.0703
C16G A30C	0.177
G17A A44G	0.233
G17A A44C	0.119
C16G A28C	0.289
C16A C38U	0.577
G15C G27U	0.214
G15C G27C	0.204
G15C U62G	0.134
G15U G32A	0.0947
G15U G32U	0.144

Variant	self-cleavage
C16U A23C	1.03
C16U A23U	0.992
C16U A64U	0.162
G17C A23U	0.572
G17C A23C	0.603
C16A A59C	0.213
C16A G19C	0.736
G15U C16U	0.937
G15C G57U	0.282
C16U A71C	1.41
G15U U33G	0.18
G15U U33A	0.248
G15C U53G	0.695
G15C U53C	1.02
G15U U62A	0.2
G15U U62C	0.461
G15U U62G	0.189
C16A A44C	0.229
C16G A31G	0.431
C16U U60C	1.26
C16U A47G	0.16
C16U A47C	0.567
G15U A44C	0.145
C16U U52G	0.761

Variant	self-cleavage
C16A A28C	0.569
C16A A28G	0.988
C16A A28U	0.611
G17C A44C	0.136
G17C A44G	0.121
C16G A59G	0.17
G15U A31C	0.118
C16U A26C	0.839
C16G A26G	0.766
C16G A26C	0.388
G17A U60C	1.36
G15C C66U	0.555
C16A G57C	0.127
C16U G51A	1.06
G15C U20C	0.997
G15C U20G	0.828
G15U A35G	0.933
G15U A35C	1.16
G15U C38A	0.124
G15U C38U	0.662
C16A A71U	0.776
G15U G42C	0.44
G15U C50G	0.353
G15C A47G	0.108

Variant	self-cleavage
G15U G69U	0.176
G17C A36U	0.356
C16U A22G	1
C16U A22U	0.972
G15C A24C	1.15
G15C A24G	0.892
C16A U70G	0.461
G17A G25U	0.494
G17A C50A	0.21
G15C A35U	0.703
G15C A35C	0.628
G15U G56C	0.195
G17A U20C	1.13
C16A A26G	0.911
G15C G51A	0.796
G15C G51C	1.23
G17A C65G	0.485
G15U U58C	0.889
G17C A64C	0.186
C16A G56A	0.0316
G15U U70C	0.999
G17A G40C	0.153
C16A G54A	0.388
C16U G25A	0.668

Variant	self-cleavage
G17A U62C	0.166
G17A U62G	0.0926
C16G A36C	0.399
C16G A36G	1.06
C16A A49G	0.389
C16A A49U	0.206
G17C A71C	1.18
G17C A71G	0.694
G15C G21C	0.897
G15C G21U	1.06
G15C C65G	0.369
G15C C37A	0.316
G15C C37U	0.592
C16U C48U	0.179
C16U C48G	0.108
G15C U67C	0.2
G15C U67A	0.112
G15C A61C	0.0894
C16G C18A	1.03
G17A A61G	0.107
G15U A59C	0.11
G15U A24U	0.957
G15U G25C	0.705
C16G G57C	0.108

Variant	self-cleavage
G15C U55A	0.279
G15C U55G	0.487
G15C U55C	0.276
G15C G69U	0.276
G17A A43G	0.0835
G15C A28U	0.74
G15C G42A	0.0806
G15C G29A	0.148
G15U G54C	0.385
G17A C18A	1.2
C16U U67A	0.325
C16A G27A	0.36
G17A U33G	0.0712
G17A U33A	0.12
G15C U52G	0.812
C16A C48U	0.0945
G17A G51U	1.06
G17C A30G	0.0659
G17C A30U	0.118
C16A A45U	0.176
G15C A30C	0.377
G15C A30G	0.198

— the RNAGym collection of RNA variant scans (doi:10.7554/elife.80360)
